The values that follow come from publication PMC7950113.

For one test, the target named is glucosidase II alpha subunit [human (endogenous in HEK293 cells)]. Nature of the test: Co-AP mass spectrometry with TMT quantification. The conditions noted are these: TMT intensities of interactors normalized to Tg intensities, read off a plot.
Turning to “FLAG-tagged thyroglobulin, WT mutant A2234D [human] / glucosidase II alpha subunit [human (endogenous in HEK293 cells)] chain 1 A2215D”, the screen value amounted to 0.2 log2.

“FLAG-tagged thyroglobulin, WT mutant C1264R [human] / glucosidase II alpha subunit [human (endogenous in HEK293 cells)] chain 1 C1245R” displayed a screen value of 0.16 log2.

The substance “FLAG-tagged thyroglobulin, WT mutant G2341R [human] / glucosidase II alpha subunit [human (endogenous in HEK293 cells)] chain 1 G2322R” registered a screen value of 0.36 log2.

As for “FLAG-tagged thyroglobulin, WT mutant L2284P [human] / glucosidase II alpha subunit [human (endogenous in HEK293 cells)] chain 1 L2265P”, the screen value was 0.26 log2.

The next test deals with RAD-dependent oxidoreductase domain containing 2 [human (endogenous in HEK293 cells)]. Nature of the test: Co-AP mass spectrometry with TMT quantification. The conditions noted are these: TMT intensities of interactors normalized to Tg intensities, read off a plot.
Turning to “FLAG-tagged thyroglobulin, WT mutant A2234D [human] / RAD-dependent oxidoreductase domain containing 2 [human (endogenous in HEK293 cells)] chain 1 A2215D”, the screen value stood at 0.67 log2.

In turn, “FLAG-tagged thyroglobulin, WT mutant C1264R [human] / RAD-dependent oxidoreductase domain containing 2 [human (endogenous in HEK293 cells)] chain 1 C1245R” came in with a screen value of 0.42 log2.

In turn, “FLAG-tagged thyroglobulin, WT mutant G2341R [human] / RAD-dependent oxidoreductase domain containing 2 [human (endogenous in HEK293 cells)] chain 1 G2322R” came in with a screen value of 0.45 log2.

The next test addresses calnexin [human (endogenous in HEK293 cells)]. Nature of the test: Co-AP mass spectrometry with TMT quantification. The conditions noted are these: TMT intensities of interactors normalized to Tg intensities, read off a plot.
Consider “FLAG-tagged thyroglobulin, WT mutant A2234D [human] / calnexin [human (endogenous in HEK293 cells)] chain 1 A2215D”, for which the screen value was -0.1 log2.

Take “FLAG-tagged thyroglobulin, WT mutant C1264R [human] / calnexin [human (endogenous in HEK293 cells)] chain 1 C1245R”: the screen value is -0.24 log2.

“FLAG-tagged thyroglobulin, WT mutant G2341R [human] / calnexin [human (endogenous in HEK293 cells)] chain 1 G2322R” yielded a screen value of 0.06 log2.

As for “FLAG-tagged thyroglobulin, WT mutant L2284P [human] / calnexin [human (endogenous in HEK293 cells)] chain 1 L2265P”, the screen value turned out to be 0.13 log2.

The next test deals with protein disulfide isomerase family A member 3 [human (endogenous in HEK293 cells)]. The test can be described thus: Co-AP mass spectrometry with TMT quantification. The conditions noted are these: TMT intensities of interactors normalized to Tg intensities, read off a plot.
With “FLAG-tagged thyroglobulin, WT mutant A2234D [human] / protein disulfide isomerase family A member 3 [human (endogenous in HEK293 cells)] chain 1 A2215D”, the screen value came to 0.16 log2.

In turn, “FLAG-tagged thyroglobulin, WT mutant C1264R [human] / protein disulfide isomerase family A member 3 [human (endogenous in HEK293 cells)] chain 1 C1245R” gave a screen value of 0.35 log2.

As for “FLAG-tagged thyroglobulin, WT mutant G2341R [human] / protein disulfide isomerase family A member 3 [human (endogenous in HEK293 cells)] chain 1 G2322R”, the screen value came out at 0.55 log2.

The substance “FLAG-tagged thyroglobulin, WT mutant L2284P [human] / protein disulfide isomerase family A member 3 [human (endogenous in HEK293 cells)] chain 1 L2265P” had a screen value of 0.6 log2.

The next test deals with UDP-glucose glycoprotein glucosyltansferase 1 [human (endogenous in HEK293 cells)]. The test can be described thus: Co-AP mass spectrometry with TMT quantification. The conditions noted are these: TMT intensities of interactors normalized to Tg intensities, read off a plot.
In turn, “FLAG-tagged thyroglobulin, WT mutant A2234D [human] / UDP-glucose glycoprotein glucosyltansferase 1 [human (endogenous in HEK293 cells)] chain 1 A2215D” yielded a screen value of 0.38 log2.

“FLAG-tagged thyroglobulin, WT mutant C1264R [human] / UDP-glucose glycoprotein glucosyltansferase 1 [human (endogenous in HEK293 cells)] chain 1 C1245R” displayed a screen value of 0.25 log2.

With “FLAG-tagged thyroglobulin, WT mutant G2341R [human] / UDP-glucose glycoprotein glucosyltansferase 1 [human (endogenous in HEK293 cells)] chain 1 G2322R”, the screen value stood at 0.64 log2.

“FLAG-tagged thyroglobulin, WT mutant L2284P [human] / UDP-glucose glycoprotein glucosyltansferase 1 [human (endogenous in HEK293 cells)] chain 1 L2265P” gave a screen value of 0.58 log2.

A further test deals with ER degradation enhancing alpha-mannosidase-like 3 [human (endogenous in HEK293 cells)]. The test can be described thus: Co-AP mass spectrometry with TMT quantification. The conditions noted are these: TMT intensities of interactors normalized to Tg intensities, read off a plot.
Regarding “FLAG-tagged thyroglobulin, WT mutant A2234D [human] / ER degradation enhancing alpha-mannosidase-like 3 [human (endogenous in HEK293 cells)] chain 1 A2215D”, the screen value is 0.2 log2.

As for “FLAG-tagged thyroglobulin, WT mutant C1264R [human] / ER degradation enhancing alpha-mannosidase-like 3 [human (endogenous in HEK293 cells)] chain 1 C1245R”, the screen value was found to be 0.07 log2.

As to “FLAG-tagged thyroglobulin, WT mutant G2341R [human] / ER degradation enhancing alpha-mannosidase-like 3 [human (endogenous in HEK293 cells)] chain 1 G2322R”, the screen value is 0.09 log2.

Turning to “FLAG-tagged thyroglobulin, WT mutant L2284P [human] / ER degradation enhancing alpha-mannosidase-like 3 [human (endogenous in HEK293 cells)] chain 1 L2265P”, the screen value is 0.2 log2.

Another test concerns the target SEL1L adaptor subunit of ERAD E3 ubiquitin ligase [human (endogenous in HEK293 cells)]. The test can be described thus: Co-AP mass spectrometry with TMT quantification. The conditions noted are these: TMT intensities of interactors normalized to Tg intensities, read off a plot.
Turning to “FLAG-tagged thyroglobulin, WT mutant A2234D [human] / SEL1L adaptor subunit of ERAD E3 ubiquitin ligase [human (endogenous in HEK293 cells)] chain 1 A2215D”, the screen value came out at 0.57 log2.

Regarding “FLAG-tagged thyroglobulin, WT mutant C1264R [human] / SEL1L adaptor subunit of ERAD E3 ubiquitin ligase [human (endogenous in HEK293 cells)] chain 1 C1245R”, the screen value stood at 0.43 log2.

For “FLAG-tagged thyroglobulin, WT mutant G2341R [human] / SEL1L adaptor subunit of ERAD E3 ubiquitin ligase [human (endogenous in HEK293 cells)] chain 1 G2322R”, the screen value came out at 0.44 log2.

In turn, “FLAG-tagged thyroglobulin, WT mutant L2284P [human] / SEL1L adaptor subunit of ERAD E3 ubiquitin ligase [human (endogenous in HEK293 cells)] chain 1 L2265P” registered a screen value of 0.49 log2.

Another test addresses oligosaccharyl transferase complex catalytic subunit B [human (endogenous in HEK293 cells)]. Nature of the test: Co-AP mass spectrometry with TMT quantification. The conditions noted are these: TMT intensities of interactors normalized to Tg intensities, read off a plot.
For “FLAG-tagged thyroglobulin, WT mutant A2234D [human] / oligosaccharyl transferase complex catalytic subunit B [human (endogenous in HEK293 cells)] chain 1 A2215D”, the screen value is -0.11 log2.

As for “FLAG-tagged thyroglobulin, WT mutant C1264R [human] / oligosaccharyl transferase complex catalytic subunit B [human (endogenous in HEK293 cells)] chain 1 C1245R”, the screen value is -0.21 log2.

“FLAG-tagged thyroglobulin, WT mutant G2341R [human] / oligosaccharyl transferase complex catalytic subunit B [human (endogenous in HEK293 cells)] chain 1 G2322R” displayed a screen value of 0.26 log2.

Substance “FLAG-tagged thyroglobulin, WT mutant L2284P [human] / oligosaccharyl transferase complex catalytic subunit B [human (endogenous in HEK293 cells)] chain 1 L2265P” displayed a screen value of 0.07 log2.

The next test has as its target OS9 endoplasmic reticulum lectin [human (endogenous in HEK293 cells)]. The test can be described thus: Co-AP mass spectrometry with TMT quantification. The conditions noted are these: TMT intensities of interactors normalized to Tg intensities, read off a plot.
In the case of “FLAG-tagged thyroglobulin, WT mutant A2234D [human] / OS9 endoplasmic reticulum lectin [human (endogenous in HEK293 cells)] chain 1 A2215D”, the screen value was 0.83 log2.

“FLAG-tagged thyroglobulin, WT mutant C1264R [human] / OS9 endoplasmic reticulum lectin [human (endogenous in HEK293 cells)] chain 1 C1245R” had a screen value of 0.39 log2.

“FLAG-tagged thyroglobulin, WT mutant G2341R [human] / OS9 endoplasmic reticulum lectin [human (endogenous in HEK293 cells)] chain 1 G2322R” displayed a screen value of 0.73 log2.

Take “FLAG-tagged thyroglobulin, WT mutant L2284P [human] / OS9 endoplasmic reticulum lectin [human (endogenous in HEK293 cells)] chain 1 L2265P”: the screen value amounted to 0.57 log2.
